Values quoted from earlier work in patent US20090023631A1, “Composition and Method of Use for Soft Tissue Augmentation/Drug Delivery” (priority 2007, published 2009).

Tested on: stage III and IV ulcers
Details: multiple studies

B1: recombinant human PDGF-BB: platelet-derived growth factor, commercial product available as recombinant human PDGF-BB (protein, UniProt P01127 82-190, looked up)
Platelet-derived growth …: SLGSLTIAEPAMIAECKTRTEVFEISRRLIDRTNANFLVWPPCVEVQRCSGCCNNRNVQCRPTQVQLRPVQVRKIEIVRKKPIFKKATVTLEDHLACKCETVAAARPVT
modifications: BB homodimer
healing time: reduce healing time
incidence of complete wound healing: improve the incidence of complete wound healing
